Patent US20170037124A1 (Regeneron, published 2017)

Assays:
[1] = target: T1, human ANGPTL8 peptide (hANGPTL8 peptide, SEQ ID NO: 337) (human); test: SPR, captured mAb, 500 nM peptide, 25C
T1 construct: also called N-terminal region ANGPTL8 peptide
T1 peptide: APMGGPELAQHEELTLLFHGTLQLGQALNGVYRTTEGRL
Procedure: (§1) The assay utilized a format where ANGPTL8 antibodies were captured on the sensor surface and peptides were injected over the antibody surface. Peptides from the N-terminal coiled-coil region of human ANGPTL3 (hANGPTL3 peptide, SEQ ID NO: 338) and human ANGPTL4 (hANGPTL4 peptide, SEQ ID NO: 339) were also included as controls. Also included was a control antibody (H4H268P from US2011/0159015A1) that binds to the ANGPTL4 peptide and a negative isotype control antibody. All binding studies were performed in 10 mM HEPES pH 7.4, 150 mM NaCl, 3 mM EDTA, and 0.05% v/v Surfactant Tween-20 (HBS-ET running buffer) at 25° C. The HCA sensor surface was derivatized via amine coupling to a monoclonal mouse anti-human Fc antibody (GE, # BR-1008-39), and to this surface was captured approximately 1000 RU of each ANGPTL8 antibody or control antibody. Peptide stock solutions were diluted in HBS-ET running buffer to 500 nM and injected over the antibody-captured surfaces for 4 minutes at a flow rate of 30 μL/minute followed by the dissociation of bound peptide in HBS-ET running buffer for 10 minutes.
(§2) Dissociative half-lives (t½) were calculated from kd as: […]

[2] = target: T2, peptide from the N-terminal coiled-coil region of human ANGPTL3 (hANGPTL3 peptide, SEQ ID NO: 338) (human); test: SPR, captured mAb, 500 nM peptide, 25C
T2 construct: also called hANGPTL3 shift peptide
T2 peptide: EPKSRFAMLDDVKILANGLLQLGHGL
Procedure: as §1, §2

[3] = target: T3, peptide from the N-terminal coiled-coil region of human ANGPTL4 (hANGPTL4 peptide, SEQ ID NO: 339) (human); test: SPR, captured mAb, 500 nM peptide, 25C
T3 peptide: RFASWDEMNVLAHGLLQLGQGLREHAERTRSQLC
Procedure: as §1, §2

[4] = target: T4, anti-mFc (AMC) Octet biosensor, blank; test: BLI Octet, blank AMC sensor, 100 nM mAb, 25C
T4 construct: Sensor without captured protein, used as blank; also called Blank AMC Sensor
Procedure: (§3) Binding of ANGPTL8 antibodies to human and monkey ANGPTL8 proteins was investigated using Bio-layer Interferometry with an Octet HTX biosensor platform (ForteBio, A Division of Pall Life Sciences). All experiments were performed at 25° C. in 10 mM HEPES pH 7.4, 150 mM NaCl, 0.05% v/v Surfactant Tween-20, and 1 mg/ml BSA with the reaction multiwell plate agitated at 1000 rpm. Approximately 1.6 nm of human ANGPTL8 produced with a C-terminal mouse IgG2a Fc tag (hANGPTL8-mFc; SEQ ID NO: 340) or cynomolgus monkey ANGPTL8 produced with a C-terminal mouse IgG2a Fc tag (MfANGPTL8-mFc; SEQ ID NO: 341) was captured onto anti-mFc (AMC) Octet biosensors by submerging the sensors into wells containing 10 μg/mL of each protein for 4 minutes. Under the same conditions a negative control protein with the same mFc tag (hLDLR-mFc) was also coupled to the AMC sensor. All four sensors, […] and one blank, were then submerged into wells containing 100 nM of different ANGPTL8 monoclonal antibodies or an isotype control for 4 minutes.

[5] = target: T5, human ANGPTL8 expressed with C-terminal mouse IgG2a Fc tag (hANGPTL8-mFc; SEQ ID NO: 340) (human); test: BLI Octet, captured antigen, 100 nM mAb, 25C
T5 construct: also called Angiopoietin-like protein 8
T5 chain: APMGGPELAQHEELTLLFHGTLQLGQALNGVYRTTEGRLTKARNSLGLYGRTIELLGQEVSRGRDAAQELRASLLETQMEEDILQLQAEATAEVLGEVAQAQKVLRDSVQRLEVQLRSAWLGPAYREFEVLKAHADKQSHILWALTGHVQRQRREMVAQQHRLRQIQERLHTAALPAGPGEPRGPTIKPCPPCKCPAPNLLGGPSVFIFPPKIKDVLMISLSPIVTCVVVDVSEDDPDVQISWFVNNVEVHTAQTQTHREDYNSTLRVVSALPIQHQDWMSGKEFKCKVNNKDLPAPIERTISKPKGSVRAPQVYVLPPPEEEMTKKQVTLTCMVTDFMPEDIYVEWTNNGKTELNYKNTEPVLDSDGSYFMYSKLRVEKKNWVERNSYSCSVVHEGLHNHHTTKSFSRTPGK
Procedure: as §3

[6] = target: T6, monkey ANGPTL8 expressed with C-terminal mouse IgG2a Fc tag (MfANGPTL8-mFc; SEQ ID NO: 341) (cynomolgus monkey); test: BLI Octet, captured antigen, 100 nM mAb, 25C
T6 construct: also called cynomolgus monkey ANGPTL8
T6 chain: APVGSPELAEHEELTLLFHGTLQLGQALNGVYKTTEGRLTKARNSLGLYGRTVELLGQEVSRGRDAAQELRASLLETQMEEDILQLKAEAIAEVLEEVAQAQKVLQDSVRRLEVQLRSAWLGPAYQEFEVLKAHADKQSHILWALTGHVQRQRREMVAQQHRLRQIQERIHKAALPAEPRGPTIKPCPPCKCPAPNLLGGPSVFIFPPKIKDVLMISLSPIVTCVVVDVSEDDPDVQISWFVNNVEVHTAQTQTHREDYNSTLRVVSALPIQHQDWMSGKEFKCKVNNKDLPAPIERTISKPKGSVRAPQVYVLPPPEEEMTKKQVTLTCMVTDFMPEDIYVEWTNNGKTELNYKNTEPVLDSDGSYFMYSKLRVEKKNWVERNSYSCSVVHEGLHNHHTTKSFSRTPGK
Procedure: as §3

[7] = target: T7, negative control protein with the same mFc tag (hLDLR-mFc) (human; mouse, UniProt P01130 22-788, limits assumed); test: BLI Octet, captured antigen, 100 nM mAb, 25C
T7 construct: also called Irrelevant control; not shown: mouse IgG2a Fc tag (same mFc tag as hANGPTL8-mFc)
T7 sequence (P01130 22-788 limits assumed): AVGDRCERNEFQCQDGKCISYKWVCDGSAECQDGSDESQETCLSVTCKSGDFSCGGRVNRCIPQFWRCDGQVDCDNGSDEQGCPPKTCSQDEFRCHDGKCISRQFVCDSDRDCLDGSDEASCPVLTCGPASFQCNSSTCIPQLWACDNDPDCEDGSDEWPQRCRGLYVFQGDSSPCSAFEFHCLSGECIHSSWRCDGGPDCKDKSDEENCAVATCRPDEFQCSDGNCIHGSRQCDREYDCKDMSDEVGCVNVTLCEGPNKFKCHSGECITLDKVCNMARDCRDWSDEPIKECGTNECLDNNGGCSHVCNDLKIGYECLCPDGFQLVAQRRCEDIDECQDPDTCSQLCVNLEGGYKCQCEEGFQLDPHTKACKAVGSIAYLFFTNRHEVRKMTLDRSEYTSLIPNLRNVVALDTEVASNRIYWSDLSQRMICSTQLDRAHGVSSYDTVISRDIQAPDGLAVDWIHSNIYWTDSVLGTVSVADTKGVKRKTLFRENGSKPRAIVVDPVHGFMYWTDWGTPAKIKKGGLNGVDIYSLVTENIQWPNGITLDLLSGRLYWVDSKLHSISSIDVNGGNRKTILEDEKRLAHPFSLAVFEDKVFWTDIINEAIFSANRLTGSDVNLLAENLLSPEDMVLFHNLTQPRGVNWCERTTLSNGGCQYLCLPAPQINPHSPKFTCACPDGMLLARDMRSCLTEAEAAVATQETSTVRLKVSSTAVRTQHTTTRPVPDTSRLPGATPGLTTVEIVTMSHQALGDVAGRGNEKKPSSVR
Procedure: as §3

B1: H4H15346P (antibody, human IgG4, V domains shown)
VH: EVQLVESGGGLVQPGGSLRLSCAASGFTFSNYAMSWVRQAPGKGLEWVSTISDTGGSTYYADSVKGRFALSRDNSRNTLYLQMNSLRAEDTAVYYCAKEGPPDYWGQGTLVTVSS
VL: EIVLTQSPATLSLSPGERATLSCRTSQSVSIYLAWYQQKPGQAPRLLIYDASKRATGIPARFSGRGSGTDFTLTISSLEPEDFAVYYCQQRSNWPLTFGQGTRLEIK
notes: H4H prefix: human IgG4 Fc
500 nM hANGPTL8 peptide Bound (RU) [1]: 0 RU | binding result [1]: no binding (tested: <9 RU at 500 nM peptide) | 500 nM hANGPTL3 peptide Bound (RU) [2]: 0 RU | binding result [2]: no binding (tested: <9 RU at 500 nM peptide) | 500 nM hAngPTL4 peptide Bound (RU) [3]: 0 RU | binding result [3]: no binding (tested: <9 RU at 500 nM peptide) | mAb Binding Response (nm) [4]: -0.01 nm | mAb Binding Response (nm) [5]: 0.07 nm | mAb Binding Response (nm) [6]: 0.01 nm | mAb Binding Response (nm) [7]: 0 nm

B2: H4H15369P2 (antibody, human IgG4, V domains shown)
VH: EVQLVESGGGLVQPGGSLRLSCVGTGFTFSNYAMSWVRQAPGKGLEWVSGISGRSSGTFYADSVKGRFTISRDNSQNTLYLQMNSLGAEDTAVYYCAKVSRYNWDYVPFDFWGQGTLVTVSS
VL: not shown
notes: H4H prefix: human IgG4 Fc
500 nM hANGPTL8 peptide Bound (RU) [1]: 0 RU | binding result [1]: no binding (tested: <9 RU at 500 nM peptide) | 500 nM hANGPTL3 peptide Bound (RU) [2]: 0 RU | binding result [2]: no binding (tested: <9 RU at 500 nM peptide) | 500 nM hAngPTL4 peptide Bound (RU) [3]: 0 RU | binding result [3]: no binding (tested: <9 RU at 500 nM peptide) | mAb Binding Response (nm) [4]: 0.01 nm | mAb Binding Response (nm) [5]: 0.14 nm | mAb Binding Response (nm) [6]: 0.17 nm | mAb Binding Response (nm) [7]: 0 nm

B3: H4H15334P (antibody, human IgG4, V domains shown)
VH: QVQLQESGPGLVKPSQTLSLTCTVSGGSINSGGYYWNWIRQHPGKGLEWIGYIYYSGSTYFNPSLKSRVTISIDTSKNQFSLKLSSVTAADTAVYYCAREGIYAFDYWGQGTLVTVSS
VL: DIQMTQSPSSLSASVGDRVTITCRASQGIRNDLGWYQQKPGKAPKRLIYSASSLQSGVPSRFGGSGSGTEFTLTISSLQPEDFATYYCLQHNSYPWTFGQGTKVEIK
notes: H4H prefix: human IgG4 Fc
500 nM hANGPTL8 peptide Bound (RU) [1]: 0 RU | binding result [1]: no binding (tested: <9 RU at 500 nM peptide) | 500 nM hANGPTL3 peptide Bound (RU) [2]: 0 RU | binding result [2]: no binding (tested: <9 RU at 500 nM peptide) | 500 nM hAngPTL4 peptide Bound (RU) [3]: 1 RU | binding result [3]: no binding (tested: <9 RU at 500 nM peptide) | mAb Binding Response (nm) [4]: 0.03 nm | mAb Binding Response (nm) [5]: 0.05 nm | mAb Binding Response (nm) [6]: 0.01 nm | mAb Binding Response (nm) [7]: 0 nm

B4: H4H15343P (antibody, human IgG4, V domains shown)
VH: QVQLVESGGGVVQPGRSLRLSCAASGFTFSSYGMHWVRQAPGKGLEWVAVISYAGSNKYYADSVKGRFTISRDNSKNTLYLQMNGLRAEDTAVYYCAKDPYGDYEGVLDYWGQGTLVTVSS
VL: DIQMTQSPSSLSASVGDRVTITCQASQDISNYLNWYQQKPGKAPKLLIYDASNLETGVPSRFSGSGSGTDFTFTISSLQPEDIATYYCQQYDHLPITFGQGTRLEIK
notes: H4H prefix: human IgG4 Fc
500 nM hANGPTL8 peptide Bound (RU) [1]: 0 RU | binding result [1]: no binding (tested: <9 RU at 500 nM peptide) | 500 nM hANGPTL3 peptide Bound (RU) [2]: 0 RU | binding result [2]: no binding (tested: <9 RU at 500 nM peptide) | 500 nM hAngPTL4 peptide Bound (RU) [3]: 0 RU | binding result [3]: no binding (tested: <9 RU at 500 nM peptide) | mAb Binding Response (nm) [4]: 0.01 nm | mAb Binding Response (nm) [5]: 0.17 nm | mAb Binding Response (nm) [6]: 0.2 nm | mAb Binding Response (nm) [7]: -0.01 nm
